Results reported in patent US20240425603A1.

What was measured:
[1] = target: human VEGFR2, over-expressed on HEK293 cells (human) (UniProt P35968); assay: flow cytometry, HEK cells over-expressing human VEGFR2
[2] = target: human VEGFR3, over-expressed on K562 cells (human) (UniProt P35916); assay: flow cytometry, K562 cells over-expressing human VEGFR3
[3] = target: Recombinant mouse VEGFR1-Fc (R&D Systems) (mouse) (UniProt P35969); assay: MSD ECL competition on plate-bound mouse VEGFR1-Fc; competitor biotin PlGF (2 nM)
Sequence of Recombinant mouse VEGFR1-Fc (R&D Systems) (mouse) (P35969 27-759 limits assumed): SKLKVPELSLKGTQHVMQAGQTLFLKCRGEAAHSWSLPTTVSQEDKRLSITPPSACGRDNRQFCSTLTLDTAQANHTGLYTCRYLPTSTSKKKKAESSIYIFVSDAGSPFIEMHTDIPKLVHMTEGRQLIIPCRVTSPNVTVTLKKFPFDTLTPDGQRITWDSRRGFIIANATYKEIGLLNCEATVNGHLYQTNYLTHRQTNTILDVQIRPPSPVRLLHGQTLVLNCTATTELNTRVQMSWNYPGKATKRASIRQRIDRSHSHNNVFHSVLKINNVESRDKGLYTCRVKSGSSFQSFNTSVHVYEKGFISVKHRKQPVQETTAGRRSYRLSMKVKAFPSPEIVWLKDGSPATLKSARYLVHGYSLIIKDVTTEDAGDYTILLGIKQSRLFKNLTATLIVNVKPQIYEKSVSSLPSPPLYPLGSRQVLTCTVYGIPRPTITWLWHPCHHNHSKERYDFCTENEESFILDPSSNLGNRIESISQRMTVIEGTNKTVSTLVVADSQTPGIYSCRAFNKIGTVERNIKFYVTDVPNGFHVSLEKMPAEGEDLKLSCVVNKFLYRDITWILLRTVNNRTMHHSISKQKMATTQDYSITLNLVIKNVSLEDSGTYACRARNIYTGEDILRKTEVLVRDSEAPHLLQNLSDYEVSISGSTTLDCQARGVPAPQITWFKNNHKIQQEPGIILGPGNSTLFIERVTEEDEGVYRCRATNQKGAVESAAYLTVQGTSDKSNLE

Sequence of human VEGFR2, over-expressed on HEK293 cells (human) (P35968 20-1356): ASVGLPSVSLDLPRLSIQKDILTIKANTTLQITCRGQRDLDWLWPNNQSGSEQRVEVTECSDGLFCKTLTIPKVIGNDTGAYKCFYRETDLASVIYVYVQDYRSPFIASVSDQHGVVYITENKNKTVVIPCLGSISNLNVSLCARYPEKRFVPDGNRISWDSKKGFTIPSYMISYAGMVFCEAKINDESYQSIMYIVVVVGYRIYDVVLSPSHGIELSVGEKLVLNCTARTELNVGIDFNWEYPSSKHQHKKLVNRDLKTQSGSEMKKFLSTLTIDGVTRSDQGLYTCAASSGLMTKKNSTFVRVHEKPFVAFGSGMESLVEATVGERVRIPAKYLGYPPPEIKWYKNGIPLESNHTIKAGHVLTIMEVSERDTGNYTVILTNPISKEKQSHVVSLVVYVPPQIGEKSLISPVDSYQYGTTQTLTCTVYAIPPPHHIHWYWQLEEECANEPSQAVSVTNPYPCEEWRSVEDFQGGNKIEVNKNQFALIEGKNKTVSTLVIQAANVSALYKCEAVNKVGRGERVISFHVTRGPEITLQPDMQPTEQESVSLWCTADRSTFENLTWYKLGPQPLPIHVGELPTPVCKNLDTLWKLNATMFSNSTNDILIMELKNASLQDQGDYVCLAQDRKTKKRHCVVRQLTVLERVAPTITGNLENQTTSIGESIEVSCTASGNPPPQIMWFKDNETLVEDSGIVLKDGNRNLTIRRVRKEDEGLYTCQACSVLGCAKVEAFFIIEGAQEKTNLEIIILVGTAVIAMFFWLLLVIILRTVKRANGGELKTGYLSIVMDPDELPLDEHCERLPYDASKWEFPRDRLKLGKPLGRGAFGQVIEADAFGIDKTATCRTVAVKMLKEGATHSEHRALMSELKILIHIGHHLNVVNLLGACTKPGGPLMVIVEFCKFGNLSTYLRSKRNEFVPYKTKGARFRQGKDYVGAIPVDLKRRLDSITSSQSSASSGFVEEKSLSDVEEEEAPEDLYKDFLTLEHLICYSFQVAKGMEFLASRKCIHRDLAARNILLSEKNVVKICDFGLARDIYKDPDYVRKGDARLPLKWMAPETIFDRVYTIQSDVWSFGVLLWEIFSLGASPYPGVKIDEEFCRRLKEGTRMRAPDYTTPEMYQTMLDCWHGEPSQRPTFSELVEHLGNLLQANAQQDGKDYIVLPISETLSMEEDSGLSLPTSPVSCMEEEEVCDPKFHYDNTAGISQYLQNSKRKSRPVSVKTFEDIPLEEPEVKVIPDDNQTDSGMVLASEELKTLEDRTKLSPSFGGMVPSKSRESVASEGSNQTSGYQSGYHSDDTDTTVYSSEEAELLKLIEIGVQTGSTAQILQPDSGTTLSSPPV
Sequence of human VEGFR3, over-expressed on K562 cells (human) (P35916 25-1363): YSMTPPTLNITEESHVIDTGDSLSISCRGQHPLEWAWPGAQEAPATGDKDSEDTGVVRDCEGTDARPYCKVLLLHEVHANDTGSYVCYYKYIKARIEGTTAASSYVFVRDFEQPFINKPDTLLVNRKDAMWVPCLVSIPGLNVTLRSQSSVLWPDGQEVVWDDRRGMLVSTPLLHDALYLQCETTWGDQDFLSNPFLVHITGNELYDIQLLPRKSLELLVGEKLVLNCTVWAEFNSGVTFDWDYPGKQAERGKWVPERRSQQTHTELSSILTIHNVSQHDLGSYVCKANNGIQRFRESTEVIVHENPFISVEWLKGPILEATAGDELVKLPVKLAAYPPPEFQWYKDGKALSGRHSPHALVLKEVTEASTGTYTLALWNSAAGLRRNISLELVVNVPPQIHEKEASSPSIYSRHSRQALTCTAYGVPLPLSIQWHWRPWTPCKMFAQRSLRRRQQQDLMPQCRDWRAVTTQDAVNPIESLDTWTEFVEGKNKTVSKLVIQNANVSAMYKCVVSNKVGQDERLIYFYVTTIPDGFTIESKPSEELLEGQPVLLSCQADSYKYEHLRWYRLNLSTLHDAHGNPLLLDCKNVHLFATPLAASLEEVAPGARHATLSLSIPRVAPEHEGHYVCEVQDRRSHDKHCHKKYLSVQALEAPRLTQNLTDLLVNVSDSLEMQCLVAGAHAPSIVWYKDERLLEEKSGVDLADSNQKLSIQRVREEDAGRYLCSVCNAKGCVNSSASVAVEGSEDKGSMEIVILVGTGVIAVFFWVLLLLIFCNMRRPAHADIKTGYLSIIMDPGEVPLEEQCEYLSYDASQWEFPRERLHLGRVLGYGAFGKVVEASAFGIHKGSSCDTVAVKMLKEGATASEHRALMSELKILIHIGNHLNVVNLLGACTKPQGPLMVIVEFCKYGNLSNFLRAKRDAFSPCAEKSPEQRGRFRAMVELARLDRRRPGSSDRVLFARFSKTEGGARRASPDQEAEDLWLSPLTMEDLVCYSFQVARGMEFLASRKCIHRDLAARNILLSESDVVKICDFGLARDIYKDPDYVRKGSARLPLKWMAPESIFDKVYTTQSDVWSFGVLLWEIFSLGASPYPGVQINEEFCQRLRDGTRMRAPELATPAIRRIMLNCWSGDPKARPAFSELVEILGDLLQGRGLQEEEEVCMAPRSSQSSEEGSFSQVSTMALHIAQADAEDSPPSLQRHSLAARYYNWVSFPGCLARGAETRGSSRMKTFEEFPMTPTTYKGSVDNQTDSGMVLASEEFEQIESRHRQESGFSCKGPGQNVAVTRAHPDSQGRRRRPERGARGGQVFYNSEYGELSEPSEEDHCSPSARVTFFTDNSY

## Goat anti-human VEGFR2 (R&D Systems Catalog #AF357) (antibody)
[1]
  Geomean over-expressing/Geomean parental (Fold Signal/Background): 28 fold

## Goat anti-human VEGFR3 (R&D Systems Catalog #AF349) (antibody)
[2]
  Geomean over-expressing/Geomean parental (Fold Signal/Background): 132 fold

## PlGF as used on mouse VEGFR1 (ligand)
[3]
  IC50: 163 pM
  Max % Inh.: 100%
